{
  "source": "paper PMC6218473",
  "about": "“Recognition of host Clr-b by the inhibitory NKR-P1B receptor provides a basis for missing-self recognition” (Nature Communications, 2018)",
  "key": {"[1]": {"target": "Clr-b residues 74-194, E. coli expressed and refolded (mouse) (UniProt Q91V08)", "test": "AUC; sedimentation velocity, Clr-b alone at higher concentrations (25–200 μM); 10 mM Tris-HCl pH 8.0, 0.15 M NaCl, 20 °C; monomer to dimer"}, "[2]": {"target": "Clr-b residues 74-194, E. coli expressed and refolded (mouse) (UniProt Q91V08)", "test": "crystal structure; Clr-b and NKR-P1B^B6 mixed 1:1, 5 mg/ml; 21% PEG 3350, 0.1 M Bis/Tris pH 5.9, 5% glycerol, 0.2 M ammonium sulfate, 20 °C; 2.9 Å"}, "NKp65 (Homo sapiens)": {"target": "NKp65 (Homo sapiens) (UniProt D3W0D1)", "sequence (D3W0D1 whole entry)": "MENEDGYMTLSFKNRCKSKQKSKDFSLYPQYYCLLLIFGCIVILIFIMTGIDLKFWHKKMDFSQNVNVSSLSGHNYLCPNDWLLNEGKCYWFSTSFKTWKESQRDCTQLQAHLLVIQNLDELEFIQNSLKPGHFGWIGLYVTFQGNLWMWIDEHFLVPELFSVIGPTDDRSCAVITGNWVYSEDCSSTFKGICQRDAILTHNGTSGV", "conditions": "cited from earlier work"}, "[3]": {"target": "extended Clr-b, C-terminally extended version terminating at Ser207, His-tagged (mouse) (UniProt Q91V08)", "sequence (Q91V08 74-207)": "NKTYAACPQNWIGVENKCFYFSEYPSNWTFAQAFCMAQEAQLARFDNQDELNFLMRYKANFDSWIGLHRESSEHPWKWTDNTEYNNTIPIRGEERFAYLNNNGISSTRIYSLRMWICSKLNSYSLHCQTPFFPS", "test": "AUC; sedimentation velocity, 120 μM each of extended Clr-b and NKR-P1B constructs, alone and in combination; 10 mM Tris-HCl pH 8.0, 0.15 M NaCl, 20 °C"}, "[4]": {"target": "the molecule itself", "test": "crystal structure; Clr-b and NKR-P1B^B6 mixed 1:1, 5 mg/ml; 21% PEG 3350, 0.1 M Bis/Tris pH 5.9, 5% glycerol, 0.2 M ammonium sulfate, 20 °C; 2.9 Å"}, "[5]": {"target": "T1, NKR-P1B (B6 allele) C-type lectin-like domain with C-terminal BirA tag and His tag, biotinylated monomer (mouse, UniProt Q99JB4 89-215, biotin on the BirA tag)", "T1 chain": "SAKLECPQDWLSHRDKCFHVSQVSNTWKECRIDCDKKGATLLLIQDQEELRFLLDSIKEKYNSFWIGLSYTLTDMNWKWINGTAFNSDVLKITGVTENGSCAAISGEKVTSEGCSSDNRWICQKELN", "test": "SPR"}},
  "data": [
    {"molecule": "Clr-b residues 74-194, E. coli expressed and refolded (from UniProt Q91V08 74-194) (domain or fragment)", "values": [
      {"measurement": "stoichiometry N", "setting": "[1]", "value": 2},
      {"measurement": "stoichiometry N", "setting": "[2]", "value": 2}
    ]},
    {"molecule": "KACL (from UniProt Q6UVW9)", "values": [
      {"measurement": "Kd", "setting": "NKp65 (Homo sapiens)", "value": 0.0007, "unit": "µM"}
    ]},
    {"molecule": "extended NKR-P1B (B6 allele) containing the membrane proximal stalk, starting from Gln72, His-tagged (from UniProt Q99JB4 72-223) (domain or fragment)", "values": [
      {"measurement": "fraction of total in the species of the complex", "setting": "[3]", "value": 6, "unit": "%"},
      {"measurement": "stoichiometry N (NKR-P1B per Clr-b chain)", "setting": "[3]", "value": 0.5}
    ]},
    {"molecule": "NKR-P1B (B6 allele) C-type lectin-like domain, His-tagged (domain or fragment, mouse, N-acetylglucosamine on Asn169 (seen in the structure), NKR-P1B, B6 (C57BL/6) allele of Klrb1b, mouse, C-type lectin-like domain; Construct for structural and AUC experiments; also called ectodomain of NKR-P1B^B6) SAKLECPQDWLSHRDKCFHVSQVSNTWKECRIDCDKKGATLLLIQDQEELRFLLDSIKEKYNSFWIGLSYTLTDMNWKWINGTAFNSDVLKITGVTENGSCAAISGEKVTSEGCSSDNRWICQKELN", "values": [
      {"measurement": "stoichiometry N (NKR-P1B per Clr-b chain)", "setting": "[2]", "value": 0.5},
      {"measurement": "stoichiometry N", "setting": "[4]", "value": 2}
    ]},
    {"molecule": "m12, mouse cytomegalovirus-encoded decoy ligand (ligand) TNVLAAPKNTSCVKKFTVSERRPPPEPGKCMSLLGSTLVNKQAANKQVDKPVTILKIFRCPVEEYLCMNATWSGRLFVRTQDNREIIFGNISFTSTDSSPTTLTGISTLKPWPLSSDLWIHSGTGDIYMFSNASFSDPKCYITLCVLRKNAHIPVQRANFAFGVTDENLVTPTSTRTVDN", "values": [
      {"measurement": "Kd", "setting": "[5]", "value": 21.6, "unit": "µM"}
    ]}
  ]
}
